In the nanobody polyreactivity screen of Harvey et al. (2022):

Assay: yeast display, Sf9 membrane polyspecificity reagent, FACS + sequencing; frameworks hold sequencing errors
Summary of the method: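 Sorting gates, low and high (top ~1%), were placed on anti-HA fluorescence to track expression and on streptavidin fluorescence to track reagent binding. A clone's polyreactivity label is taken from the gate it came out of. The reagent was 10% biotinylated, detergent-solubilized Sf9 membrane, applied for 1 hour at 4 °C to galactose-induced yeast display cells.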

Sequence | polyreactivity (PSR sort gate)
QVQLVESGPGLVQAGVSLRLSCAASGSIFAYYAMGWYRQAPGKERELVAAISSRGGNTYYADSVKGRFTISRHYAKNSVYLQMNSLKPEDTAVYYCAADYQYSYGEYDYWGQGTQVTVSS | high polyreactivity
QVQLVESGGGLDQAGGSLRLSSAASGLTFFSEYAMGLYRQPPGIERELVASIDWSGDSTYYADSVKGRFTISRDNAMKTVYLQMNSLKPEYTAVYYCAKDYSTEISQEYYYWVQGTQVTVSS | high polyreactivity
QVQLVESGGGLVQAGGSLRLSCAASGSTLSFYAMGWYRQAPGKERELVAAISYSTGTTYYADSVKGRFTISRDNAKNTVYLQMNSLKPEDTAVYYCAVYWQHNSTRYYYWGQGTQVTVSS | high polyreactivity
QVQLVESGGGLVQAGGSLRLSCAASGSTFNYNAMGWYRQAPGKERELVAAITYSGSSTYYADSVKGRFTISRDNAKNTVYLQMNSLKPEDTAVYYCAKDWYYLRRNYDYWGQGTQVTVSS | high polyreactivity
QVQLVESGGGLVQAGGSLRLSCAASGSIFWGYAMGWYRQAPGKERELVAAITRGDTTNYADSVKGRFTISRDNAKNTVYLQMNSLKPEDTAVYYCAATPDPPHTYEYWGQGTQVTVSS | low polyreactivity
QVQRGESGGGLVQAGGSLRLSCAASAIIIYYYAMGCYRQAPGNERELVAGISYSGGSTYADSVKGRFTISRDNAKLTVYLQMNSLKPEDTAVYYCAAEYEYGGHWYDYWGQGTQETVSS | low polyreactivity
QVQLVESGGGLVQAGGSLRLSCAASGRTFVQYAMGWYRQAPGKERELVAAISDRGGNTYYADSVKGRFTISRDNAKNTVYLQMNSLKPEDTAVYYCAAKIALDNDYWGQGTQVTVSS | high polyreactivity
QVQLVESGGGLVQAGGSLRLSCAASGRIFKSYAMGGYRHAPGKERELVAAISSGDDTYYADSVKGRFTISRDNAKNTVYLQMNSLKQEDTAVYYCAADYWGWIYLYGDYLVDYWGQGTQVTVSS | low polyreactivity
QVQLVESGGGLLQAGGSLRLSCAASGSTFDYYVMGWYRQAPGKERELVAAISHNAGSTYYADSVKGRFTISRDNAKNTVYLQMNSLKPEDTAVYYCAAPDYRNGVRYPLDYWGQGTQVTVSS | low polyreactivity
QVQLVDSGGGLVQAGGSLRLSCAASGLIFSYNAMGWYRQAPGKERELVATIRRVGSTNYADSVKGRFTISRDNEKNTVYLQMNSLKPEDTAVYYCAARSLRYGRGMYYWGQGTQVTVSS | high polyreactivity
QVQLVESGGGLVQAGGSLRLSCAASGRTFRRNAMGWYRQAPGKERELVASINRGGGTNYADSVKGRFTISRDNAKNTVYLQMNSLKPEDTAVYYCAAGPGTYWGYDYWGQGTQVTVSS | low polyreactivity
QVQLVESVGGLVQAGGSLRLSCAASGRILKRNAMGWYRQAPGKERELVAAISWSTGTTYYADSVKGRFTISRDNAKNTVYLQMKSLKPEDTAVYYSAKQIVSGRRVDRNDYWGQGTQVSVSS | low polyreactivity
QVQLVESGGGLVQAGGSLRLSCADSGTIFALYAMGWYRQAPGKEREFVAAIRRGTSTKYADSVKGRFTISRDNAKNTVYLQMNSLKPEDTAVYYCNARYYYSSSISRWYDYWGQGTQVTVSS | high polyreactivity
QVQHVESGGGIVQAGGSLRLSCAASGRIFDSNAMGWYRQAPGKERELVAAITTSGGSTFYADSVKGRFTISRDNAKNTVYLQMNSLKPEDTAVYYCAAGYSYYYHAIFPFDYWGQGTQVTVSS | high polyreactivity
QVQLVESGGGLVQAGGSLRLSCAASGSIFDGNAMGWYRQAPGKERELVAAISGGGRTYYADSVKGRFTISRDNAKNTVYLQMNSLKPEDTAVYYCAAAYTFYVYGSYKVTLDYWGQGTQVTVSS | low polyreactivity
QVQIVESGGGLFQAGGSLRISCAASGRIFQYYTMGWYRQAPGKERELVATISRRGGTTYYADSVKGRFTISRDNAKNTVYLQMNSLKPEDTAVYYCNADSRTYRYYWSYGYWGQGTQVTVSS | high polyreactivity

Sequence | polyreactivity (PSR sort gate)
QVQLVESGGGLVQAGGSLRLSCAASGRIFDRYAMGWYRQAPGKERELVASITSSGGNTYYADSVKGRFTISRDNAKNTVYLQMNSLKPEDTAVYYCAKPQRVWQYGNYYYWGQGTQVTVSS | high polyreactivity
QVHLVESGGGLVQAGGSLRLSCAASGSIFGSYAMGWYRQAPGKERELVASITRVDSTNYADSVKGRFTISRDNAKNTVYLQMNSLKPEDTAVYYCNAGKTIDYRDGVGYDHWGQGTQVTVSS | low polyreactivity
QLQLVESGGGLVQAGGSLRLSCAPSGRTFVGNAMGWYRQAPGKERELVAAITLSDGSTYYADSVKGRFTISRDNAKNTVYLQMNSLKPEDTAVYYCATQPLYWYDVVVNIRGPSGYWGQGTQVTVSS | low polyreactivity
QVQLVESGGGLVQAGGSLRLSCAASGSTFQYYAMGWYRQAPGKERELVARISDSSANTYYADSVKGRFTISRDNAKNTVYLQMNSLKPEDTAVYYCAASVPYKFYSVVSVRYEYWGQGTQVTVSS | low polyreactivity
QVQLVESGGGLVQAGGSLRLICAASVSIFKAYAMGWYRQAPGKEMELVARIRYRGGSTYYADSVKGRFTISRDNAKNTVYLQMNSLKPEDTAVYYCAARFSPYHTDRGDYWGQGTQVTVSS | high polyreactivity
QVQLVESGGGLVQAGGSLRLSCAASGNIFYPNAMGGSRQAPGKERGLVAAISSSGGSTYYADSVKGRFTISRDNAKNTVYLQINSLKPEDTAVYYCAKDRSYAYYWSPYPTGYDYWGQGTQVTVSS | low polyreactivity
QVQLVESGGGLVQAGGSLRLSRAASGITFGFNAMGWYRQAPGKERELVAAITWSVGRTYYADSVKGRFTISRDNAKNTVYLQMNSLKPEDTAVYYCAKVFEAGDDYFAYDYWGQGTQVTVSS | low polyreactivity
QLQLVESGGGLVQAGGSLRLSCAASGRIFQSYALGWYRQAPGKESELVAGIRAGGGRTYYADSVKGRFTISRDNAKNTVYLQMNSLKPEDTAVYYCATDFYPRYLLRTYRPYYYWGQGTQVTVSS | low polyreactivity
QVQLVESGGGLDQAGGSLRLTCAASGRTFSRNAMGWYRQAPGKERELVAAISGSGGTTYYADSVKGRFTISRDNAKNTVYLQMKSLKPEDTAVYYCAADLRYAWVFWYEYWGLGTQVTVSS | low polyreactivity
QVQLVESGGGLVQAGGSLRLSCAASGIIFWSSVMGWYRQAPGKERELVAAITFSGGSTYYADSVKGRFTISRDNAKNPVYLQMNSLKPEDTAVYYCAARYKLVRRYDYWGQGTQVTVSS | low polyreactivity
QVQLVESGGGLVQAGGILRLSCAASGFTFTYYAMGWYIQAPGKERELVAAITRDDSTNYADSVKGRFTISRDNAKNTVYLQMNSLKPEDTAVYYCAADSWYPSYGYWGQGTQVTVSS | low polyreactivity
QVQLVESGGGLVQAGCSLRLSCAASGRIFRLNAMGWYRQAPGKERELVAAISSSGGSTYYADSVKGRFTISRDNAKNTVYLQMNSLKPEDTAVSYCAKYPVGGYDYWGQGPQVTVSS | low polyreactivity
QVQLVESGGGLVQAGGSLRLSCAASGITFALNAMGWYRQAPGKERELVAAIRWGGDSTYYADSVKGRFTISRDNAKNTVYLQMNSLKPEDTAVYYCAAYGPRTLDYWGQGTQVTVSS | high polyreactivity
QVQLVESGGGLVQAGGSLRLSCAASGRTFWWYAMGWYRQAPGKERALVAGISSGGSTYYADSVKGRCTISRDNAKKTVYLLMNSRKPEETAVYYCAKTYWYPWRASLWHEYDYWGQGTQVTVSS | low polyreactivity
QVQLVESGGGLVQAGGSLRLSCAASGSIFSRNAMGWYRQAPGKERELVAAITWSGGSTYYADSVKGRFTISRDNAKNTVYLQMNSLKPEDTAVYYCNAKRSSRIKQLEYDYWGQGTQVTVSS | high polyreactivity
